Target: Gαi1 subunit (human, UniProt P63096)
Assay: cryo-EM structure

B1: hNTSR1(∆ICL3; residues 20-418, A85L, ∆282-291) (receptor)
chain: QRAQAGLEEALLAPGFGNASGNASERVLAAPSSELDVNTDIYSKVLVTAVYLALFVVGTVGNTVTLFTLARKKSLQSLQSTVHYHLGSLALSDLLTLLLAMPVELYNFIWVHHPWAFGDAGCRGYYFLRDACTYATALNVASLSVERYLAICHPFKAKTLMSRSRTKKFISAIWLASALLAVPMLFTMGEQNRSADGQHAGGLVCTPTIHTATVKVVIQVNTFMSFIFPMVVISVLNTIIANKLTVMVRQAAEQGQVCTVGGPGRVQALRHGVRVLRAVVIAFVVCWLPYHVRRLMFCYISDEQWTPFLYDFYHYFYMVTNALFYVSSTINPILYNLVSANFRHIFLATLACLCPVWRRRRKRPAFSRKADSVSSNHTLSSNATRETLY
binding result: binds

Source: paper PMC7065593 (Nature, 2019)
